Laboratory results reported in publication PMC9287412, “Cryo-EM structure of the human Kv3.1 channel reveals gating control by the cytoplasmic T1 domain” (Nature Communications, 2022).

Biological target: the molecule itself
Assay: cryo-EM structure; purified Kv3.1a, 20 uM, in 20 mM HEPES pH 7.5, 100 mM NaCl, 50 mM KCl, 0.04% digitonin; apo, with 1 mM EDTA or with 400 uM ZnCl2; subunits within the tetrameric channel

B1: human Kv3.1a channel (full-length human Kv3.1, isoform A) (natural protein, UniProt P48547 1-511, looked up)
chain: MGQGDESERIVINVGGTRHQTYRSTLRTLPGTRLAWLAEPDAHSHFDYDPRADEFFFDRHPGVFAHILNYYRTGKLHCPADVCGPLYEEELAFWGIDETDVEPCCWMTYRQHRDAEEALDSFGGAPLDNSADDADADGPGDSGDGEDELEMTKRLALSDSPDGRPGGFWRRWQPRIWALFEDPYSSRYARYVAFASLFFILVSITTFCLETHERFNPIVNKTEIENVRNGTQVRYYREAETEAFLTYIEGVCVVWFTFEFLMRVIFCPNKVEFIKNSLNIIDFVAILPFYLEVGLSGLSSKAAKDVLGFLRVVRFVRILRIFKLTRHFVGLRVLGHTLRASTNEFLLLIIFLALGVLIFATMIYYAERIGAQPNDPSASEHTHFKNIPIGFWWAVVTMTTLGYGDMYPQTWSGMLVGALCALAGVLTIAMPVPVIVNNFGMYYSLAMAKQKLPKKKKKHIPRPPQLGSPNYCKSVVNSPHHSTQSDTCPLAQEEILEINRAGRKPLRGMSI
notes: Voltage-gated potassium channel Kv3.1, human, shorter splice variant Kv3.1a (isoform A, α-isoform), full length, cloned from the mammalian gene collection; Homotetramer in the cryo-EM structures; the longer Kv3.1b was not used; also called shorter α-isoform of Kv3.1; KCNC1 gene product; not shown: Strep-II, C-terminal, cleaved; His10, C-terminal, cleaved; GFP, C-terminal, cleaved
- stoichiometry N: 4
